The values that follow come from US20140335192.

Experiment in all cases: ITC
Common to all, as to settings: 250 uM protein into 40 uM siRNA, unit of K not stated

Data set [1] has as its system DRBD (double-stranded RNA binding domain).
Data set [2] deals with PTD (protein transduction domain peptide).
Data set [3] deals with DRBD-PTD chimera (RND-DRBD).

Regarding Luciferase siRNA, the Ka was 15200 in data set [1] (Sorensen's phosphate buffer, enthalpy 1998.83 kJ/mol); 10500 in data set [1] (deionized water, enthalpy 201.18 kJ/mol); 1.04e+07 in data set [2] (Sorensen's phosphate buffer, enthalpy 14.03 kJ/mol); 1e+10 in data set [2] (deionized water, enthalpy 29.83 kJ/mol); 2.12e+07 in data set [3] (Sorensen's phosphate buffer, enthalpy 61.51 kJ/mol); 1e+10 in data set [3] (deionized water, enthalpy 98.92 kJ/mol).
